# Measured values published in US20040141994.
# Target: UL12 alkaline nuclease (Herpes simplex virus 1) (UniProt P04294)
# Assay: cleavage_in_vitro
# Settings: optimal nuclease conditions; 0.06 at strand exchange conditions (pH 7.5, 1 mM MgCl2, 40 mM NaCl, 37 C)
# Sequence of UL12 alkaline nuclease (Herpes simplex virus 1) (P04294 whole entry): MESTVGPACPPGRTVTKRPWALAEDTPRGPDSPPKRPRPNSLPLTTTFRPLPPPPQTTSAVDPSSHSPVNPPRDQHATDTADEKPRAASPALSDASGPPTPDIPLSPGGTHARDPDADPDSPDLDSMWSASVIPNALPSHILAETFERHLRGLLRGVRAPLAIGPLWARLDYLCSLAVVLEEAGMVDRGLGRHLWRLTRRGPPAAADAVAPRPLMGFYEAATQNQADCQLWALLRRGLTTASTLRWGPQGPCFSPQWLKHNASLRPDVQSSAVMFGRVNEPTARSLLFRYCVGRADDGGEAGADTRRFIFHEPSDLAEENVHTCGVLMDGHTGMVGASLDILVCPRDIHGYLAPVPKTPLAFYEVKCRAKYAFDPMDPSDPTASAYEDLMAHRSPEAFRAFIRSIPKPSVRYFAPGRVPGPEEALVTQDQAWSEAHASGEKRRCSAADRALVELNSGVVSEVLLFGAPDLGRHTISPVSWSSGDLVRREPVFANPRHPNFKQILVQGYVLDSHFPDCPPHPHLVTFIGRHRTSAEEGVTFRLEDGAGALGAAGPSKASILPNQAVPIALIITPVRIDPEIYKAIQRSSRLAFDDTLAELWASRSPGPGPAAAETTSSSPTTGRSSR
substance,measurement,value
E. coli chromosomal DNA,activity (ng DNA/min/ng protein),0.2
